Legend:
[1] = substrate: CC(=O)N[C@H]1[C@@H](OP(=O)(O)OP(=O)(O)OC[C@H]2O[C@@H](n3ccc(=O)[nH]c3=O)[C@H](O)[C@@H]2O)O[C@H](CO)[C@@H](O)[C@@H]1O[C@H](C)C(=O)O; test: orthophosphate release with calf intestinal alkaline phosphatase coupling; Michaelis-Menten fit of initial rates; type: biochemical, Streptococcus pneumoniae; settings: 50 mM Tris pH 8.4, 5 mM MgCl2, 100 nM enzyme, 37°C for the relative activity assay
Text: (§1) orthophosphate release with calf intestinal alkaline phosphatase coupling; Michaelis-Menten fit of initial rates on UDP-X diphosphatase (UDP-Xase), SP_1669

[2] = substrate: O=c1ccn([C@@H]2O[C@H](CO[P@@](=O)(O)O[P@@](=O)(O)O[C@H]3O[C@H](CO)[C@@H](O)[C@H](O)[C@H]3O)[C@@H](O)[C@H]2O)c(=O)[nH]1; test: as above; type: biochemical, Streptococcus pneumoniae; settings: 50 mM Tris pH 8.4, 5 mM MgCl2, 100 nM enzyme, 37°C for the relative activity assay
Text: as §1

[3] = substrate: CC(=O)N[C@H]1[C@@H](OP(=O)(O)OP(=O)(O)OC[C@H]2O[C@@H](n3ccc(=O)[nH]c3=O)[C@H](O)[C@@H]2O)O[C@H](CO)[C@@H](O)[C@@H]1O[C@H](C)C(=O)N[C@@H](C)C(=O)O; test: as above; type: biochemical, Streptococcus pneumoniae; settings: 50 mM Tris pH 8.4, 5 mM MgCl2, 100 nM enzyme, 37°C for the relative activity assay
Text: as §1

[4] = target: the molecule itself; test: SEC; size-exclusion chromatography, data not shown
[5] = target: the molecule itself; test: SAXS; small-angle X-ray scattering of the mutants in solution, 4.5 and 6 mg/mL; ab initio envelopes fitted with the wild-type crystal dimer (PDB 4HFQ)

B1: UDP-X diphosphatase from Streptococcus pneumoniae TIGR4 (SP_1669 gene product), wild type (enzyme, UniProt A0A0H2URA0 1-203, looked up)
chain: MKTSDFVKYLQRMIAITDTGLTFTKDPFDRERYEDLRSLLSEMLNQASDLDSEEVAEVLKPTSAYATPLMDVRAWIVEDEKICLVRGQGEDSWALPGGFGEVGYSPTENILKEIEEETGFKAKVERLLAVFDTNRFQLQSKQYTKFVFGCKLLDGQFQENQEIADLQFFAIDQLPNLSEKRITKEQIELLWQVYQGHRGQYLD
notes: Nudix hydrolase UDP-X diphosphatase encoded by gene SP_1669 of Streptococcus pneumoniae TIGR4; the gene was amplified from genomic DNA with NdeI and BamHI sites at its start and end; the structure describes residues 1-203 (N-terminal domain 1-59, loop 60-68, C-terminal catalytic domain 69-203); No tag is named; also called UDP-Xase; source: E. coli BL21(DE3), pET-24a, purified (ammonium sulfate, …)
[1]
  Km: 3600 ± 400 µM
  Vmax: 17.7 µM/min
  kcat: 3 ± 0.1 s⁻¹
  kcat/Km: 800 ± 100 M⁻¹ s⁻¹
[2]
  Km: 2900 ± 1100 µM
  Vmax: 7 µM/min
  kcat: 1.2 ± 0.1 s⁻¹
  kcat/Km: 400 ± 200 M⁻¹ s⁻¹
[3]
  Km: 1600 ± 300 µM
  Vmax: 28.3 µM/min
  kcat: 4.7 ± 0.2 s⁻¹
  kcat/Km: 2900 ± 700 M⁻¹ s⁻¹
[4]
  stoichiometry N: 2

B2: UDP-X diphosphatase E162A mutant (enzyme)
chain: MKTSDFVKYLQRMIAITDTGLTFTKDPFDRERYEDLRSLLSEMLNQASDLDSEEVAEVLKPTSAYATPLMDVRAWIVEDEKICLVRGQGEDSWALPGGFGEVGYSPTENILKEIEEETGFKAKVERLLAVFDTNRFQLQSKQYTKFVFGCKLLDGQFQENQAIADLQFFAIDQLPNLSEKRITKEQIELLWQVYQGHRGQYLD
notes: UDP-X diphosphatase encoded by gene SP_1669 of Streptococcus pneumoniae TIGR4, with E162A made by site-directed mutagenesis of the wild-type construct; Same construct as m1 apart from the mutation; also called UDP-Xase E162A; source: E. coli, expressed as the wild type, purified (ammonium sulfate, Phenyl FF, Source Q, Sephacryl S200)
[5]
  binding result: binds

B3: UDP-X diphosphatase E113A mutant (enzyme)
chain: MKTSDFVKYLQRMIAITDTGLTFTKDPFDRERYEDLRSLLSEMLNQASDLDSEEVAEVLKPTSAYATPLMDVRAWIVEDEKICLVRGQGEDSWALPGGFGEVGYSPTENILKAIEEETGFKAKVERLLAVFDTNRFQLQSKQYTKFVFGCKLLDGQFQENQEIADLQFFAIDQLPNLSEKRITKEQIELLWQVYQGHRGQYLD
notes: UDP-X diphosphatase encoded by gene SP_1669 of Streptococcus pneumoniae TIGR4, with E113A made by site-directed mutagenesis of the wild-type construct; Same construct as m1 apart from the mutation; also called UDP-Xase E113A; source: E. coli, expressed as the wild type, purified (ammonium sulfate, Phenyl FF, Source Q, Sephacryl S200)
[5]
  stoichiometry N: 2
